Test results reported in patent publication US20230414771A1, “PREPARATION AND USE OF IMMUNOSTIMULATORY CONJUGATED COMPLEXES FOR TARGETED DELIVERY AND ACTIVATION” (YAFEI SHANGHAI BIOLOGY MEDICINE SCIENCE & TECHNOLOGY CO., …, priority 2020, published 2023).
*1 amine or outer side, *2 acyl side, *3 side chain or, on linkers, in order; H or OH if unused. Where a SMILES comes first, the peptide text is derived from it. [ ]: non-standard residue; d: D form. The star is where a group is joined. ξ: configuration not given here. Doxorubicin(3'-N) = COc1cccc2c1C(=O)c1c(O)c3c(c(O)c1C2=O)C[C@@](O)(C(=O)CO)C[C@@H]3O[C@H]1C[C@H](N*)[C@H](O)[C@H](C)O1; Thyronine(3,5,3'-I3) = N[C@@H](Cc1cc(I)c(Oc2ccc(O)c(I)c2)c(I)c1)C(=O)O; X9 = O=C([C@@H](Cc1cc(I)c(Oc2ccc(O)c(I)c2)c(I)c1)N[*:1])[*:2]; Hexanoyl(6-maleimido) = O=C1C=CC(=O)N1CCCCCC(=O)*; Resiquimod = CCOCc1nc2c(N*)nc3ccccc3c2n1CC(C)(C)O; PABC = O=C(OCc1ccc(N[*:1])cc1)[*:2]; X3 = O=C1C=CC(=O)N1CCOCCOCCC(=O)*; ξN = NC(=O)CC(N)C(=O)O

Assay: Water solubility test (observation and HPLC)
Type: physicochemical
Conditions: thermodynamic from solid
Method: The compounds prepared in accordance with the examples of the disclosure and the reference compounds C1, C2, C3 and C4 were lyophilized (−70° C.).

`C[C@@H](NC(=O)CCOCCOCCNC(=O)CCN1C(=O)C=CC1=O)C(=O)N[C@H](C)C(=O)N[C@H](CC(N)=O)C(=O)Nc1ccc(COC(=O)Nc2nccc(-c3sc(C(C)(C)C)nc3-c3cccc(NS(=O)(=O)c4c(F)cccc4F)c3F)n2)cc1` [QHL-086-dabrafenib] and `C[C@@H](NC(=O)CCOCCOCCOCCNC(=O)CCN1C(=O)C=CC1=O)C(=O)N[C@H](C)C(=O)N[C@H](CC(N)=O)C(=O)Nc1ccc(COC(=O)Nc2nccc(-c3sc(C(C)(C)C)nc3-c3cccc(CS(=O)(=O)c4c(F)cccc4F)c3F)n2)cc1` [QHL-089-dabrafenib] cannot be ordered by solubility: greater than 20000 µg/mL for the first, greater than 20000 µg/mL for the second.

`CCOCc1nc2c(NC(=O)OCc3ccc(NC(=O)[C@H](CC(N)=O)NC(=O)[C@H](C)NC(=O)[C@H](C)NC(=O)[C@H](CCC(=O)O)NC(=O)CCCCCN4C(=O)C=CC4=O)cc3)nc3ccccc3c2n1CC(C)(C)O` [QHL-116-Resiquimod] ({Hexanoyl(6-maleimido)}-EAAN[PABC]-Resiquimod) and `CCOCc1nc2c(NC(=O)OCc3ccc(NC(=O)[C@H](CC(N)=O)NC(=O)[C@H](C)NC(=O)[C@H](C)NC(=O)CCCCCN4C(=O)C=CC4=O)cc3)nc3ccccc3c2n1CC(C)(C)O` [QHL-140-Resiquimod] cannot be ordered by solubility: greater than 10000 µg/mL for the first, greater than 10000 µg/mL for the second.

`CCOCc1nc2c(NC(=O)OCc3ccc(NC(=O)[C@H](CC(N)=O)NC(=O)[C@H](C)NC(=O)[C@H](C)NC(=O)CCOCCOCCNC(=O)CCN4C(=O)C=CC4=O)cc3)nc3ccccc3c2n1CC(C)(C)O` [QHL-086-Resiquimod] and `CCOCc1nc2c(NC(=O)OCc3ccc(NC(=O)[C@@H](CC(N)=O)NC(=O)[C@H](C)NC(=O)[C@H](C)NC(=O)CCOCCOCCOCCNC(=O)CCN4C(=O)C=CC4=O)cc3)nc3ccccc3c2n1CC(C)(C)O` [QHL-089-Resiquimod] cannot be ordered by solubility: greater than 10000 µg/mL for the first, greater than 10000 µg/mL for the second.

`C[C@H](NC(=O)CCOCCOCCN1C(=O)C=CC1=O)C(=O)N[C@@H](C)C(=O)N[C@H](CC(N)=O)C(=O)N[C@@H](Cc1cc(I)c(Oc2ccc(O)c(I)c2)c(I)c1)C(=O)O` [QHL-153-T3] (X3-AA[dN][Thyronine(3,5,3'-I3)]-OH) and `C[C@H](NC(=O)[C@H](C)NC(=O)[C@@H](CC(=O)O)NC(=O)CCCCCN1C(=O)C=CC1=O)C(=O)NC(CC(N)=O)C(=O)N[C@H](Cc1cc(I)c(Oc2ccc(O)c(I)c2)c(I)c1)C(=O)O` (some centres unmarked) [QHL-162-T3] ({Hexanoyl(6-maleimido)}-[dD]AA[ξN][X9]-OH) cannot be ordered by solubility: greater than 10000 µg/mL for the first, greater than 10000 µg/mL for the second.

`C[C@@H](NC(=O)CCOCCOCCNC(=O)CCN1C(=O)C=CC1=O)C(=O)N[C@H](C)C(=O)N[C@H](CC(N)=O)C(=O)Nc1ccc(COC(=O)Nc2c(-c3nc4ccc(N5CCN(C)CC5)cc4[nH]3)c(=O)[nH]c3cccc(F)c23)cc1` [QHL-086 - Dovitinib] and `C[C@@H](NC(=O)CCOCCOCCOCCNC(=O)CCN1C(=O)C=CC1=O)C(=O)N[C@H](C)C(=O)N[C@H](CC(N)=O)C(=O)Nc1ccc(COC(=O)Nc2c(-c3nc4ccc(N5CCN(C)CC5)cc4[nH]3)c(=O)[nH]c3cccc(F)c23)cc1` [QHL-089 - Dovitinib] cannot be ordered by solubility: greater than 20000 µg/mL for the first, greater than 20000 µg/mL for the second.

`COc1cccc2c1C(=O)c1c(O)c3c(c(O)c1C2=O)C[C@@](O)(C(=O)CO)C[C@@H]3O[C@H]1C[C@H](NC(=O)[C@H](CC(C)C)NC(=O)[C@H](CC(N)=O)NC(=O)[C@H](C)NC(=O)[C@H](C)NC(=O)[C@@H](NC(=O)CCCCCN2C(=O)C=CC2=O)C(C)C)[C@H](O)[C@H](C)O1` [QHL-123-DOX] ({Hexanoyl(6-maleimido)}-VAANL-{Doxorubicin(3'-N)}) and `C[C@H](NC(=O)[C@H](C)NC(=O)[C@@H](CCC(=O)O)NC(=O)CCCCCN1C(=O)C=CC1=O)C(=O)N[C@@H](CC(N)=O)C(=O)N[C@H](Cc1cc(I)c(Oc2ccc(O)c(I)c2)c(I)c1)C(=O)O` [QHL-161-T3] ({Hexanoyl(6-maleimido)}-[dE]AAN[X9]-OH) cannot be ordered by solubility: greater than 2000 µg/mL for the first, greater than 10000 µg/mL for the second.

`CCOCc1nc2c(NC(=O)OCc3ccc(NC(=O)[C@H](CC(N)=O)NC(=O)[C@H](C)NC(=O)[C@H](C)NC(=O)CCOCCOCCOCCOCCOCCOCCN4C(=O)C=CC4=O)cc3)nc3ccccc3c2n1CC(C)(C)O` [QHL-008-Resiquimod] and `CCOCc1nc2c(NC(=O)OCc3ccc(NC(=O)[C@@H](CC(N)=O)NC(=O)[C@H](C)NC(=O)[C@H](C)NC(=O)CCOCCOCCOCCN4C(=O)C=CC4=O)cc3)nc3ccccc3c2n1CC(C)(C)O` [QHL-006-Resiquimod] cannot be ordered by solubility: greater than 10000 µg/mL for the first, greater than 10000 µg/mL for the second.
